These results are taken from publication PMC8464063, “The bacterial iron sensor IdeR recognizes its DNA targets by indirect readout”.

The term stoichiometry N denotes the number of molecules, sites or subunits per partner or assembly. By Kd is commonly meant the concentration at which binding is half-saturated.

Data set [1] has as its target Saccharopolyspora erythraea IdeR P39G variant (Saccharopolyspora erythraea). Put plainly: crystal structure; IdeR (WT, Q43A or P39G) with 1 mM CoCl2 or Fe(NH4)2(SO4)2 and 150 uM 30-bp double-stranded DNA (consensus or C10S1); space group C2, two IdeR dimers and one DNA duplex in the asymmetric unit.
For data set [2], the target named is Saccharopolyspora erythraea iron-dependent regulator IdeR, wild type (Saccharopolyspora erythraea). Put plainly: crystal structure; Co2+-activated IdeR WT without DNA; 12 mg/ml protein with 1 mM CoCl2 and 0.3 mg/ml trypsin before crystallisation; 25% PEG 1500, 20°C; space group P1, one IdeR dimer in the asymmetric unit.
Data set [3] shares this target. Put plainly: crystal structure; IdeR (WT, Q43A or P39G) with 1 mM CoCl2 or Fe(NH4)2(SO4)2 and 150 uM 30-bp double-stranded DNA (consensus or C10S1); space group C2, two IdeR dimers and one DNA duplex in the asymmetric unit.
In data set [4] the target is Saccharopolyspora erythraea IdeR Q43A variant (Saccharopolyspora erythraea). The data set is described as above.
Data set [5] addresses T1, IdeR WT (Saccharopolyspora erythraea DSM 40517, UniProt A0ABF7PL34 1-231). Nature of the data set: EMSA; 30 uM Co2+; EMSA: 15 mM Tris-acetate pH 7.3, 4 mM K-acetate, 10% glycerol, 17 ng/ul poly(dI-dC), 30 nM DNA, 30 uM Co2+, IdeR 15 nM-2.25 uM dimer, 20 min room temperature; 4% native gel at 4 C. Conditions: protein: recombinant, tags: N-terminal His6 removed by TEV, Gly-His remains before Met1, chain copies: 4, blunt.

Data set [6] deals with T1, IdeR WT. Put plainly: EMSA; 30 uM Co2+; one dimer bound; EMSA: 15 mM Tris-acetate pH 7.3, 4 mM K-acetate, 10% glycerol, 17 ng/ul poly(dI-dC), 30 nM DNA, 30 uM Co2+, IdeR 15 nM-2.25 uM dimer, 20 min room temperature; 4% native gel at 4 C. The following applies: protein: recombinant; tags: N-terminal His6 removed by TEV; Gly-His remains before Met1; chain copies: 4; label: 5' Cy5 on strand 1; blunt. In general terms: In EMSA bound probe runs differently from free probe, usually more slowly.

The target of data set [7] is T1, IdeR WT. Put plainly: X-ray crystallography; Fe2+; two dimers per duplex; EMSA: 15 mM Tris-acetate pH 7.3, 4 mM K-acetate, 10% glycerol, 17 ng/ul poly(dI-dC), 30 nM DNA, 30 uM Co2+, IdeR 15 nM-2.25 uM dimer, 20 min room temperature; 4% native gel at 4 C. Conditions: protein: recombinant; tags: N-terminal His6 removed by TEV; Gly-His remains before Met1; chain copies: 4; blunt.

Data set [8] has as its target T2, IdeR P39G (Saccharopolyspora erythraea DSM 40517, UniProt A0ABF7PL34 1-231, P39G). Nature of the data set: X-ray crystallography; Co2+; two dimers per duplex; EMSA: 15 mM Tris-acetate pH 7.3, 4 mM K-acetate, 10% glycerol, 17 ng/ul poly(dI-dC), 30 nM DNA, 30 uM Co2+, IdeR 15 nM-2.25 uM dimer, 20 min room temperature; 4% native gel at 4 C. Conditions: protein: recombinant; tags: N-terminal His6 removed by TEV; Gly-His remains before Met1; chain copies: 4; blunt.

Another data set has as its target IdeR Q43A (Saccharopolyspora erythraea DSM 40517, UniProt A0ABF7PL34 1-231, Q43A). Nature of the data set: EMSA; 30 uM Co2+; EMSA: 15 mM Tris-acetate pH 7.3, 4 mM K-acetate, 10% glycerol, 17 ng/ul poly(dI-dC), 30 nM DNA, 30 uM Co2+, IdeR 15 nM-2.25 uM dimer, 20 min room temperature; 4% native gel at 4 C. Conditions: protein: recombinant; tags: N-terminal His6 removed by TEV; Gly-His remains before Met1; chain copies: 4; label: 5' Cy5 or 5' FAM on strand 1; blunt.

Data set [9] addresses T2, IdeR P39G. The data set is described as above. Conditions: protein: recombinant; tags: N-terminal His6 removed by TEV; Gly-His remains before Met1; chain copies: 4; label: 5' Cy5 or 5' FAM on strand 1; blunt.
Data set [10] deals with T1, IdeR WT. Nature of the data set: EMSA; 30 uM Co2+; up to 22.5 uM dimer; EMSA: 15 mM Tris-acetate pH 7.3, 4 mM K-acetate, 10% glycerol, 17 ng/ul poly(dI-dC), 30 nM DNA, 30 uM Co2+, IdeR 15 nM-2.25 uM dimer, 20 min room temperature; 4% native gel at 4 C. The following applies: protein: recombinant, tags: N-terminal His6 removed by TEV, Gly-His remains before Met1, chain copies: 4, blunt.

In data set [1], “Saccharopolyspora erythraea IdeR P39G variant (natural protein)” gave a stoichiometry N of 2.

Take “Saccharopolyspora erythraea iron-dependent regulator IdeR, wild type (natural protein)”: the stoichiometry N in [2] and in [3] was 2 in each case.

On to “Saccharopolyspora erythraea IdeR Q43A variant (natural protein)”, for which the stoichiometry N in data set [4] amounted to 2.

B1: Consensus_C2-T2 (dsDNA)
DNA 1: CGTACTTAAGTTAAGTTAACTTAAGTCACG
DNA 2: CGTGACTTAAGTTAACTTAACTTAAGTACG
For the molecule B1, the Kd in the data set with IdeR WT [5] (label: 5' FAM on strand 1) is approximately 105 nM.

B2: C23S1 (dsDNA)
DNA 1: AGTCATAAAGTTAGGTTCGCCTCACTACT
DNA 2: AGTAGTGAGGCGAACCTAACTTTATGACT
As to B2, the dissociation constant (Kd) in the data set with IdeR WT [6] is approximately 102 nM.

B3: Cons_long (crystal) (dsDNA)
DNA 1: CGTACTTAGGTTAGGCTAACCTAAGTCACG
DNA 2: CGTGACTTAGGTTAGCCTAACCTAAGTACG
For B3, the binding result with IdeR WT [7] and in the data set with IdeR P39G [8] was “binds” in each case.

B4: Consensus_Full (dsDNA)
DNA 1: CGTACTTAGGTTAGGCTAACCTAAGTACG
DNA 2: CGTACTTAGGTTAGCCTAACCTAAGTACG
For the molecule B4, the dissociation constant Kd with IdeR Q43A is approximately 65 nM; in the data set with IdeR WT [5] (label: 5' Cy5 or 5' FAM on strand 1) it was approximately 45 nM; with IdeR P39G [9], approximately 264 nM.

B5: C10S1 (dsDNA)
DNA 1: CGTACTTTGGTAAAGCTAACCTAAGTCACC
DNA 2: GGTGACTTAGGTTAGCTTTACCAAAGTACG
Take B5: the Kd in the data set with IdeR WT [5] (label: 5' FAM on strand 1) is approximately 116 nM.

B6: Minimal_NCTNN (dsDNA)
DNA 1: CGTACGCAGACGAGACTCGTCTGCGCTACG
DNA 2: CGTAGCGCAGACGAGTCTCGTCTGCGTACG
As for B6, in the data set with IdeR WT [10] (label: 5' FAM on strand 1), the binding result is “no binding”.

B7: Half site (dsDNA)
DNA 1: CGTACCCGGTTTAGGGCCACCTAAGTACG
DNA 2: CGTACTTAGGTGGCCCTAAACCGGGTACG
Consider B7, for which the Kd with IdeR WT [6] was approximately 78 nM.

B8: Consensus_A4A5-S4S5 (dsDNA)
DNA 1: CGTACGCAGGCGAGGCTCGCCTGCGTACG
DNA 2: CGTACGCAGGCGAGCCTCGCCTGCGTACG
As for B8, the Kd with IdeR WT [5] (label: 5' Cy5 on strand 1) is approximately 128 nM.

B9: Minimal_CNTNN (dsDNA)
DNA 1: CGTACGCACGCGATGCTCGCATCCGTACG
DNA 2: CGTACGGATGCGAGCATCGCGTGCGTACG
For B9, the binding result with IdeR WT [10] (label: 5' Cy5 on strand 1) was “no binding”.

B10: Consensus_C1-T1 (dsDNA)
DNA 1: CGTACTTAGATTAGACTAATCTAAGTACG
DNA 2: CGTACTTAGATTAGTCTAATCTAAGTACG
As to B10, the Kd in the data set with IdeR WT [5] (label: 5' Cy5 on strand 1) was approximately 70 nM.

B11: Consensus_C1C2-T1T2 (dsDNA)
DNA 1: CGTACTTAAATTAAATTAATTTAAGTACG
DNA 2: CGTACTTAAATTAATTTAATTTAAGTACG
As for B11, the binding result with IdeR WT [10] (label: 5' Cy5 on strand 1) is on record as “no binding”.

B12: C10S2 (dsDNA)
DNA 1: GATGCTTAGGTTAGCCTACCCGACGCTGA
DNA 2: TCAGCGTCGGGTAGGCTAACCTAAGCATC
Take B12: in the data set with IdeR WT [5] (label: 5' Cy5 on strand 1), the Kd was approximately 94 nM.

B13: Consensus_T3-G3 (dsDNA)
DNA 1: CGTACTTCGGTTCGGCGAACCGAAGTACG
DNA 2: CGTACTTCGGTTCGCCGAACCGAAGTACG
On to B13, for which the binding result in the data set with IdeR WT [10] (label: 5' Cy5 on strand 1) was “no binding”.
